Data reported in article PMC4323281 (Nature, 2014).

Molecular target: the molecule itself
Test: AUC

B1: Archaeoglobus fulgidus alanyl-tRNA synthetase (AlaRS), wild-type, full-length (enzyme, UniProt O28029 1-906, looked up)
chain: MTLDEEYLDITFLTENGFVRKRCPKCGKHFWTADPEREICGDPPCESYSFIGNPVFKKPFELDEMREYYLNFFERRGHGRIERYPVVARWRTDIYLTIASIADFQPFVTSGVAPPPANPLTISQPCIRLDDLDSVGRTGRHLTLFEMMAHHAFNYPGKEIYWKNETVAYCTELLNELGVKKEDIVYKEEPWAGGGNAGPCLEAIVGGLEVATLVFMNLEEHPEGDIEIKGARYRKMDNYIVDTGYGLERFVWASKGTPTVYDAIFPEVVDTIIDNSNVSFNREDERVRRIVAESSKLAGIMGELRGERLNQLRKSVADTVGVSVEELEGIVVPLEKVYSLADHTRCILFMLGDGLVPSNAGAGYLARLMIRRSLRLAEELELGLDLYDLVEMHKKILGFEFDVPLSTVQEILELEKERYRTTVSKGTRLVERLVERKKKLEKDDLIELYDSHGIPVELAVGIAAEKGAEVEMPKDIYAELAKRHSKAEKVQEKKITLQNEYPATEKLYYDDPTLLEFEAEVIGVEGDFVILNRSAFYPESGGQDNDVGYLIANGGKFEVVDVLEADGVVLHVVKGAKPEVGTKVKGVIDSDVRWRHMRHHSATHVLLYSLQKVLGNHVWQAGARKEFSKARLDVTHFRRPSEEEIKEIEMLANREILANKPIKWEWMDRIEAERKFGFRLYQGGVPPGRKIRVVQVGDDVQACGGTHCRSTGEIGMLKILKVESIQDGVIRFEFAAGEAAIEAVEEMERLLREASSILRVEPAKLPKTVERFFEEWKDQRKEIERLKSVIADLWADILMERAEEFDSMKVVAEVVDADMQALQKLAERLAEKGAVGCLMAKGEGKVFVVTFSGQKYDARELLREIGRVAKGSGGGRKDVAQGAVQQLLDREEMLDVIFRFLSEHEG
**Q.** Which “stoichiometry N” value does the source give for B1 here?
**A.** The value was 2.
